From patent US20190359697A1 (Scripps Research, published 2019)
Positions count from the first letter of the chain named. Numbers in names are those of the source.

B1: hFMCL2b/H4c(Q1E-V20L)-WT (antibody, V domains shown)
VH: EVQLQESGPGLVKPSETLSLTCTVSGVSLPDYGVSWIRQPPGKGLEWLGVIWGSETTYYNSALKSRLTISKDNSKNQVSLKMSSLTAADTAVYYCAKHYYYGGSYAMDYWGQGTLVTVSS
VL: DIQMTQSPSSLSASVGDRVTITCRASQDISKYLNWYQQKPGKAVKLLIYHTSRLHSGVPSRFSGSGSGTDYTLTISSLQPEDFATYFCQQGATLPYTFGQGTKLEIK
B2: hFMCL2-LCNT/hFMCH4b (Fab, V domains shown)
VH: B1 VH with E1Q, L20V, S61P, A62S
VL: B1 VL with V44P, F87Y
B3: hFMCL2/H3 WT (antibody, V domains shown)
VH: B1 VH with E1Q, L20V, S61P, A62S, K97R
VL: B1 VL with V44P, F87Y
B4: hFMCL2b(V44L)/H4c(Q1E)-WT (antibody, V domains shown)
VH: B1 VH with L20V
VL: B1 VL with V44L
B5: hFMCL2b/H4c-x-(Q1E)-WT (antibody, V domains shown)
VH: B1 VH with L48I, L67V, V78F, M82L, L85V
VL: B1 VL
B6: hFMCL2b/H4b(Q1E-V20L)-WT (antibody, V domains shown)
VH: B1 VH with S61P, A62S
VL: B1 VL
B7: hFMCL2/H2 WT (antibody, V domains shown)
VH: B1 VH with E1Q, L20V, S61P, A62S, N73T, K97R
VL: B1 VL with V44P, F87Y
B8: hFMCL2/H4a WT (antibody, V domains shown)
VH: B1 VH with E1Q, L20V, S61P, A62S, N73T
VL: B1 VL with V44P, F87Y
B9: hFMCL2b(A92N)-LCNT/hFMCH4c(Q1E) (Fab, V domains shown)
VH: B1 VH with L20V
VL: B1 VL with A92N
B10: hFMCL2b/H4c(Q1E)-WT (antibody, V domains shown)
VH: B1 VH with L20V
VL: B1 VL
B11: hFMCL2b/H4b-x-(Q1E)-WT (antibody, V domains shown)
VH: B1 VH with L48I, S61P, A62S, L67V, V78F, M82L, L85V
VL: B1 VL
B12: hFMCL2-LCNT/hFMCH4c (Fab, V domains shown)
VH: B1 VH with E1Q, L20V
VL: B1 VL with V44P, F87Y
B13: hFMCL2b/H4b(Q1E)-WT (antibody, V domains shown)
VH: B1 VH with L20V, S61P, A62S
VL: B1 VL

Tests used:
CD19 [1] = target: T1, CD19 (UniProt P15391 20-556); test: flow
T1 chain: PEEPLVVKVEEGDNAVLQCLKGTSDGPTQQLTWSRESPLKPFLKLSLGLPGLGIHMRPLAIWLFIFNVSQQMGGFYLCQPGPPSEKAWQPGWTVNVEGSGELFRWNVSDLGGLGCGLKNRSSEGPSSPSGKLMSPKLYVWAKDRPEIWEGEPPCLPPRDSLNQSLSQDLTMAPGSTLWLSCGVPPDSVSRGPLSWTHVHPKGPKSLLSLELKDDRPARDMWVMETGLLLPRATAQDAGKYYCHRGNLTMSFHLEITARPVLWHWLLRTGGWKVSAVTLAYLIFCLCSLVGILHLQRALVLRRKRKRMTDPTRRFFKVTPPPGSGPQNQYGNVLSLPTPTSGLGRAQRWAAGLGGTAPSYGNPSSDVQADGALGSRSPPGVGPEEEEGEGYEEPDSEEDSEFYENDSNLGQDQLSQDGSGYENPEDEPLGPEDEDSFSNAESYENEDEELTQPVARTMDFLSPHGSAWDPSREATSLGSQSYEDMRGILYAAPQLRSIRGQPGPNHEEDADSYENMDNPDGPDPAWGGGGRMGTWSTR

CD19 [2] = target: T2, CD19 (UniProt P15391 20-556, limits assumed); test: cell-based or functional assay
T2 sequence (looked up): T1 chain

CD19 [3] = target: T1, CD19; test: flow cytometry cell binding; FIG. 5; WT switch (no PNE)

EC50 (CD19 [1]) [nM]	EC50 (CD19 [3]) [nM]	Binder	EC50 of cytotoxicity (LDH), sCAR-T cells + switch vs CD19+ RS4;11, Average of the repeat assays (CD19 [2]) [nM]	EC50 of cytotoxicity (LDH), sCAR-T cells + switch vs CD19+ RS4;11, assay DTR-5-15 (PBMC) (CD19 [2]) [nM]	EC50 of cytotoxicity (LDH), sCAR-T cells + switch vs CD19+ RS4;11, assay DTR-5-16 (CD4:CD8) (CD19 [2]) [nM]	EC50 of cytotoxicity (LDH), sCAR-T cells + switch vs CD19+ RS4;11, assay DTR-5-50 (PBMC) (CD19 [2]) [nM]	EC50 of cytotoxicity (LDH), sCAR-T cells + switch vs CD19+ RS4;11, assay DTR-5-51 (CD4:CD8) (CD19 [2]) [nM]
1.18	–	B1	0.013	0.00752	0.0153	0.0144	0.0148
–	–	B2	0.0156	0.0214	0.00743	0.0187	0.0146
–	23.9	B3	0.0876	0.139	0.0771	0.0614	0.0726
1.72	–	B4	0.00745	0.00204	0.00845	0.00701	0.0123
16.9	–	B5	0.0442	0.0283	0.0818	0.0151	0.0515
0.875	–	B6	0.00996	0.00963	0.0131	0.00748	0.0096
–	45.6	B7	0.0843	0.141	0.079	0.0386	0.0785
–	6.65	B8	0.0407	0.0432	0.0507	0.0283	0.0407
–	–	B9	0.00992	0.00873	0.00919	0.00655	0.0152
0.809	–	B10	0.00951	0.0071	0.00941	0.00825	0.0133
1.87	–	B11	0.0538	0.0296	0.0776	0.0438	0.0639
–	–	B12	0.018	0.0166	0.016	0.0092	0.0301
0.987	–	B13	0.0113	0.00715	0.0105	0.00697	0.0207
